Measured values: the supplement of paper PMC9876800

Test system: peptide library, one residue held at a place counted from the S/T acceptor
Experiment: relative phosphorylation of the sub-library (ratio to the mean residue at this position); higher = residue favoured
Summary of the method: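 Relative sub-library phosphorylation, a ratio to the mean residue at that position, was obtained by phosphorimaging and densitometry of spots on streptavidin membranes. Before capture, purified recombinant kinases were incubated for 90 min under kinase-specific conditions with 50 μM biotinylated degenerate peptide sub-libraries and 50 μM ATP spiked with γ-32P-ATP. Each sub-library fixed one residue at one position around a central Ser/Thr.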

Chain of MAPK13, construct: Full length, human (O15264 whole entry, looked up): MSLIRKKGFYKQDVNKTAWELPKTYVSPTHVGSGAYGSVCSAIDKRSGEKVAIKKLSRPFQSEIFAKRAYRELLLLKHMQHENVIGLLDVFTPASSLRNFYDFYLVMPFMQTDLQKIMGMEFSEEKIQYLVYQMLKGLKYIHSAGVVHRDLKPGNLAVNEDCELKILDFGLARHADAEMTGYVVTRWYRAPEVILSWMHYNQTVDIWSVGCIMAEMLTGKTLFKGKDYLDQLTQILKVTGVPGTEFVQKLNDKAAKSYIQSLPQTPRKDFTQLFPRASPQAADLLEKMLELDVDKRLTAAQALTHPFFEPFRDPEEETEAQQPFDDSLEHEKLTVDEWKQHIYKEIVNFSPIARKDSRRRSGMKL
Chain of MAPK14, construct: Full length, human (Q16539 whole entry, looked up): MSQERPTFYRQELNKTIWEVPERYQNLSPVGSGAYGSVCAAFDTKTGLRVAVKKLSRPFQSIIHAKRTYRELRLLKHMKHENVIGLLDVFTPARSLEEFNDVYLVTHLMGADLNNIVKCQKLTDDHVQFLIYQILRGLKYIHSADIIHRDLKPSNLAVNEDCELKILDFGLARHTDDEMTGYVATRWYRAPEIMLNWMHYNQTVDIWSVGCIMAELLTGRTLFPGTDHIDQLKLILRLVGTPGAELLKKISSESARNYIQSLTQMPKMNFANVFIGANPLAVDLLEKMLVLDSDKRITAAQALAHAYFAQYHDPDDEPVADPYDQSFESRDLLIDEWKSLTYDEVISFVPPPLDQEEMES

MAPK13, construct: Full length, human (from UniProt O15264)
relative phosphorylation
Details | at +1 | at +2 | at +3 | at +4 | at -1 | at -2 | at -3 | at -4 | at -5
A fixed | 0.304 | 0.921 | 1.42 | 1.32 | 1.31 | 1.25 | 1.26 | 1.2 | 1.3
D fixed | 0.162 | 0.572 | 1 | 1.09 | 1.11 | 0.486 | 1.09 | 1.46 | 1.26
E fixed | 0.123 | 0.497 | 1.07 | 0.846 | 0.937 | 0.434 | 1.21 | 1.39 | 1.34
F fixed | 0.148 | 0.663 | 0.413 | 1.06 | 0.768 | 0.457 | 1.04 | 0.933 | 0.923
G fixed | 0.975 | 1.31 | 1.13 | 1.39 | 0.948 | 0.896 | 1.64 | 1.16 | 1.33
H fixed | 0.143 | 0.694 | 0.936 | 0.884 | 0.927 | 0.405 | 0.773 | 0.879 | 1.05
I fixed | 0.172 | 1.27 | 0.948 | 1.02 | 0.529 | 1.52 | 0.912 | 1.02 | 0.923
K fixed | 0.148 | 0.751 | 0.57 | 0.665 | 0.681 | 0.25 | 0.522 | 0.662 | 0.855
L fixed | 0.208 | 1.27 | 1.08 | 0.988 | 1.24 | 2.47 | 0.884 | 1.05 | 0.974
M fixed | 0.182 | 1.04 | 0.659 | 1.28 | 1.77 | 1.49 | 1.14 | 1.22 | 1.16
N fixed | 0.16 | 0.438 | 0.64 | 0.849 | 0.782 | 0.512 | 0.815 | 0.983 | 1.1
P fixed | 12.9 | 1.05 | 2.58 | 0.942 | 2.31 | 3.75 | 1.08 | 0.999 | 0.962
Q fixed | 0.613 | 0.805 | 0.853 | 0.754 | 1.15 | 0.554 | 0.999 | 1.04 | 0.915
R fixed | 0.171 | 1.4 | 0.715 | 0.559 | 0.698 | 0.353 | 0.542 | 0.653 | 0.792
V fixed | 0.353 | 2.28 | 1.18 | 1.41 | 0.635 | 1.53 | 1.24 | 0.939 | 0.652
W fixed | 0.126 | 0.88 | 1.01 | 0.868 | 0.486 | 0.279 | 0.837 | 0.745 | 0.721
Y fixed | 0.14 | 1.16 | 0.791 | 1.07 | 0.711 | 0.36 | 1.02 | 0.665 | 0.735
pThr fixed | 0.158 | 1.67 | 0.939 | 0.853 | 0.309 | 0.376 | 1.14 | 1.49 | 1.7
pTyr fixed | 0.126 | 0.994 | 0.837 | 0.652 | 0.729 | 0.339 | 1.07 | 1.38 | 1.19

MAPK14, construct: Full length, human (from UniProt Q16539)
relative phosphorylation
Details | at +1 | at +2 | at +3 | at +4 | at -1 | at -2 | at -3 | at -4 | at -5
A fixed | 1.53 | 1.11 | 1.23 | 0.76 | 1.11 | 1.26 | 1.35 | 1.05 | 0.942
D fixed | 0.147 | 0.674 | 0.665 | 0.783 | 0.616 | 0.425 | 0.833 | 0.947 | 0.761
E fixed | 0.135 | 0.652 | 0.727 | 0.67 | 0.84 | 0.319 | 1.22 | 0.981 | 0.935
F fixed | 0.403 | 0.864 | 1 | 1.47 | 0.795 | 0.59 | 0.769 | 1.01 | 0.997
G fixed | 1.24 | 1.3 | 1.17 | 1.05 | 1.35 | 0.91 | 1.67 | 1.16 | 1.18
H fixed | 0.346 | 1.11 | 0.846 | 0.89 | 1.06 | 0.499 | 1.01 | 0.859 | 1
I fixed | 0.337 | 1.29 | 1.53 | 0.996 | 0.649 | 0.93 | 0.957 | 1.16 | 1.12
K fixed | 0.34 | 1.33 | 0.654 | 1.06 | 0.922 | 0.594 | 0.908 | 1.09 | 1.24
L fixed | 0.412 | 1.12 | 0.877 | 1.07 | 1.39 | 1.43 | 0.87 | 1.21 | 1.16
M fixed | 0.408 | 0.967 | 0.926 | 1.11 | 1.55 | 1.14 | 1.07 | 1.15 | 1.05
N fixed | 0.344 | 0.797 | 0.611 | 0.716 | 0.809 | 0.548 | 0.887 | 0.837 | 0.785
P fixed | 9.61 | 0.697 | 1.64 | 0.88 | 1.14 | 4.82 | 1.27 | 1.03 | 1.27
Q fixed | 0.277 | 0.903 | 0.673 | 0.895 | 1.1 | 0.686 | 0.892 | 0.898 | 0.871
R fixed | 0.424 | 1.44 | 0.926 | 1.21 | 1.42 | 0.752 | 1.11 | 0.959 | 1.03
V fixed | 0.366 | 1.09 | 1.43 | 0.801 | 0.755 | 1.09 | 0.727 | 0.767 | 0.757
W fixed | 0.37 | 0.751 | 1.1 | 1.42 | 0.637 | 0.507 | 0.64 | 0.945 | 0.746
Y fixed | 0.31 | 0.914 | 0.998 | 1.21 | 0.866 | 0.492 | 0.807 | 0.934 | 1.16
pThr fixed | 0.432 | 1.1 | 0.892 | 0.516 | 0.341 | 0.619 | 1.02 | 0.89 | 0.939
pTyr fixed | 0.397 | 0.625 | 1.16 | 0.674 | 0.632 | 0.435 | 0.834 | 0.943 | 1.33
